# In US9974865B2, “Antibody drug conjugates (ADC) that bind to FLT3 proteins” (AGENSYS, INC., priority 2015, dated 2018):
# B1: v62-1b21: hybridoma FLT3 MAb from VelocImmune mice, fully human variable regions and mouse constant regions (antibody, V domains shown)
# VH: EVQLVESGGGLVRPGGSLRLSCAASGFTFSGYSINWVRQAPGKGLEWVSSISSSSNYIYYADSVKGRFTISRDNAKNSLYLQMNSLRAEDTAVYYCAREGFIAGTTFDAFDIWGQGTMVTVSS
# VL: DIQMTQSPSSLSASVGDRVTITCRASQGIRNDLGWYQQKPGKAPKRLIYAASSLQSGVPSRFSGSGSGTEFTLTISSLQPEDFATYYCLQHNGFPYTFGQGTKLEIKR
# B2: v62-1b21.1-AGL-0129-08 (conjugate)
# VH: B1 VH
# VL: B1 VL
# B3: Human FLT3 ligand: human FLT3 ligand purchased from R and D Systems (protein)
# chain: TQDCSFQHSPISSDFAVKIRELSDYLLQDYPVTVASNLQDEELCGGLWRLVLAQRWMERLKTVAGSKMQGLLERVNTEIHFVTKCAFQPPPSCLRFVQTNISRLLQETSEQLVALKPWITRQNFSRCLELQCQPDSSTLPPPWSPRPLEATAPTAPQPP
# Assays:
# Raji cells = test: ADCC assay (CytoTox 96, LDH release), positive control cell line; type: cell-based, human; conditions: E:T=100:1, 2.5 ug/mL, 4 hours
# cell surface FLT3 = cell surface FLT3 (Homo sapiens, UniProt P36888); test: Binding to cell surface FLT3 by flow cytometry
# From the text: To express CHv62.21 MAb recombinantly in transfected cells, v62.21 hybridoma MAb variable heavy and light chain sequences were cloned upstream of the human heavy chain IgG1 and human light chain Igκ constant regions respectively. The complete CHv62.21 MAb human heavy chain and light chain cassettes were cloned downstream of the CMV promoter/enhancer in a cloning vector. The recombinant CHv62.21 MAb expressing construct was transfected into CHO cells for stable expression in the Lonza GS system (Lonza, Basel, Switzerland). The CHv62.21 MAb secreted from recombinant CHO cells was purified and evaluated for binding to cell surface FLT3 by flow cytometry.
# To express CHv62.21pAF recombinantly in transfected cells, v62-1b21 hybridoma MAb variable heavy and light chain sequences were cloned upstream of the human heavy chain IgG1 and human light chain Igκ constant regions respectively. The complete CHv62.21 MAb human heavy chain and light chain cassettes were cloned downstream of the CMV promoter/enhancer in a cloning vector. […] The CHv62.21pAF secreted from the stable subclone was purified and evaluated for binding to cell surface FLT3 by flow cytometry.
# RS-4-11 cells = type: cell-based, human
# Experimental: Briefly, The RS-4-11 cells were seeded in 50 μl of complete media at a density of 3000 cells per well onto 96 well plates and placed in a tissue culture incubator at 37° C.; 5% CO2. The next day, the ADCs were prepared in complete media at 10 μg/mL and serially diluted 1:5 for a total of 9 points. […] At the end of the incubation period, 20 μl of Presto Blue was added to each well and incubated for 2 hours. The plates were read using a BioTek Synergy H4 plate reader using 540 Excitation and 590 Emission wavelengths and graphed using Graphpad Prism software.
# EOL-1 cells = test: EOL-1 growth with human FLT3 ligand and antibody (Cell Titer Glo, 5 days); type: cell-based
# Experimental: The ability of FLT3 antibodies (CHv62.21 and v62-1b37.1) to mediate the effect of human FLT3 ligand was evaluated using the human leukemia EOL-1 cell line, which endogenously expresses FLT3. Isotype control antibody (mLys-1c3.1) was also used. […] The next day, cells were treated with 50, 10 or 5 ng/mL of human FLT3 ligand (in 25 μl of complete media) and 10, 1, 0.1 and 0 μg/mL of test antibody (in 25 μl of complete media). Media alone was used as the untreated control. […] At the end of the incubation period, 100 μl of Cell Titer Glo was added to each well and incubated for 30 minutes, shaking, at room temperature.
molecule,measurement,setting,value
Rituximab,ADCC activity,Raji cells,confirms ADCC activity
B1,binding to cell surface FLT3,cell surface FLT3,specifically binds to Flt3 protein and Flt3 expressing cells
B2,cytotoxicity,RS-4-11 cells,can induce cytotoxicity
B3,"effect on growth, FLT3 ligand alone",EOL-1 cells,no effect on growth
